# Assay results from patent US20100331256.
# “And” between values parts separate entries of the source, which are not always exact repeats. Identical values can stand only once.
# B1: recombinant human neutral endopeptidase (NEP) (protein)
# chain: DDGICKSSDCIKSAARLIQNMDATTEPCTDFFKYACGGWLKRNVIPETSSRYGNFDILRDELEVVLKDVLQEPKTEDIVAVQKAKALYRSCINESAIDSRGGEPLLKLLPDIYGWPVATENWEQKYGASWTAEKAIAQLNSKYGKKVLINLFVGTDDKNSVNHVIHIDQPRLGLPSRDYYECTGIYKEACTAYVDFMISVARLIRQEERLPIDENQLALEMNKVMELEKEIANATAKPEDRNDPMLLYNKMTLAQIQNNFSLEINGKPFSWLNFTNEIMSTVNISITNEEDVVVYAPEYLTKLKPILTKYSARDLQNLMSWRFIMDLVSSLSRTYKESRNAFRKALYGTTSETATWRRCANYVNGNMENAVGRLYVEAAFAGESKHVVEDLIAQIREVFIQTLDDLTWMDAETKKRAEEKALAIKERIGYPDDIVSNDNKLNNEYLELNYKEDEYFENIIQNLKFSQSKQLKKLREKVDKDEWISGAAVVNAFYSSGRNQIVFPAGILQPPFFSAQQSNSLNYGGIGMVIGHEITHGFDDNGRNFNKDGDLVDWWTQQSASNFKEQSQCMVYQYGNFSWDLAGGQHLNGINTLGENIADNGGLGQAYRAYQNYIKKNGEEKLLPGLDLNHKQLFFLNFAQVWCGTYRPEYAVNSIKTDVHSPGNFRIIGTLQNSAEFSEAFHCRKNSYMNPEKKCRVW
# Columns and labels:
# [1] = molecular target: T1, PEO4-(PEO12)3 (branched)-CNP22
# T1 chain: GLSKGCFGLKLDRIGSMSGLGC
# PEG2K-CNP22 = molecular target: T2, PEG2K-CNP22
# T2 chain: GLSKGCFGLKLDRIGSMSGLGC
# Analog P: CNP22, K4G = molecular target: T3, Analog P: CNP22, K4G
# T3 chain: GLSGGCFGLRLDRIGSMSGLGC
# [2] = molecular target: T4, Analog BL: QEHPNARKYKGANKK-CNP22 (CNP37)
# T4 chain: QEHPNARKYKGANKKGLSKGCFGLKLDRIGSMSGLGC
# [3] = molecular target: T5, Analog AV: Pentanoic acid (N-term.)-CNP22, G1E, K4E (not fully specified)
# T5 chain: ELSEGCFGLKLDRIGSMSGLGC
# [4] = molecular target: T6, Analog E: CNP22, D-F7 (D-Phe)
# T6 chain: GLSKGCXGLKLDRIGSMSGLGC
# [5] = molecular target: T7, Analog M: CNP22, N-methyl-L9, N-methyl-L11
# T7 chain: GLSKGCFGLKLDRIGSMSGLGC
# PEO24-GANRR-CNP22(K4R) = molecular target: T8, PEO24-GANRR-CNP22(K4R)
# T8 chain: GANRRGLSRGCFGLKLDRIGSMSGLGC
# PEG5K-CNP22 = molecular target: T9, PEG5K-CNP22
# T9 chain: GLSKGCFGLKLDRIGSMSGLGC
# [6] = molecular target: T10, Analog AC: CNP22, K4R, G8T
# T10 chain: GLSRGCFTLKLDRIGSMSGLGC
# [7] = molecular target: T11, Analog BJ: CNP22, K4R, G15N
# T11 chain: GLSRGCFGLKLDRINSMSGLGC
# [8] = molecular target: T12, Analog BK: CNP22, K4R, G15S
# T12 chain: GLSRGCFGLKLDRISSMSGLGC
# [9] = molecular target: T13, Analog CG: GANSS-CNP22, K4R
# T13 chain: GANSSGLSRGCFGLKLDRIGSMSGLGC
# [10] = molecular target: T14, Analog CS: GQEHPNARKYKGANPK-CNP22 (modified CNP37) (not fully specified)
# T14 chain: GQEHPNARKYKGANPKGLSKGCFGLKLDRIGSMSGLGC
# [11] = molecular target: T15, Analog A: CNP22, C6-CH2-NH (reduced carbonyl)
# T15 chain: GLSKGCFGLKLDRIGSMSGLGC
# [12] = molecular target: T16, Analog L: CNP22, N-methyl-L9, N-methyl-L11, N-methyl-L20
# T16 chain: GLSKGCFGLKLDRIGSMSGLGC
# [13] = molecular target: T17, Analog CC: DLRVDTKSRAAWAR-CNP22
# T17 chain: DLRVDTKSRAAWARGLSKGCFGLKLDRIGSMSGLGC
# Analog AZ: R-CNP22, K4R = molecular target: T18, Analog AZ: R-CNP22, K4R
# T18 chain: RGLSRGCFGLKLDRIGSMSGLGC
# [14] = molecular target: T19, Analog K: CNP22, N-methyl-L9, N-methyl-L20
# T19 chain: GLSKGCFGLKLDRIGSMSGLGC
# [15] = molecular target: T20, Analog CF: GQPREPQVYTLPPS-CNP22 (IgG1(Fc) fragment)
# T20 chain: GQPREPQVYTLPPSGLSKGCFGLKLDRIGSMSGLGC
# [16] = molecular target: T21, Analog V: CNP22, K4G, 3,4-dichloro-F7
# T21 chain: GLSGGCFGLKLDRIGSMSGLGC
# [17] = molecular target: T22, Analog AT: CNP22, G1E, K4E
# T22 chain: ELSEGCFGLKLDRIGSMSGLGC
# [18] = molecular target: T23, Analog AY: GANRR-CNP22, K4R (CNP-27)
# T23 chain: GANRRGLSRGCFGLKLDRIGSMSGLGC
# [19] = molecular target: T24, Analog H: CNP22, Beta-2-F7 (3-amino-2-phenylpropionyl)
# T24 chain: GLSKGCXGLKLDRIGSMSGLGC
# [20] = molecular target: T25, Analog F: CNP22, t-butyl-G8
# T25 chain: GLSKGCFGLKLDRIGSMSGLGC
# Analog BA: ER-CNP22, K4R = molecular target: T26, Analog BA: ER-CNP22, K4R
# T26 chain: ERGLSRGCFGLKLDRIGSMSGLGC
# [21] = molecular target: T27, Analog G: CNP22, 3-chloro-F7
# T27 chain: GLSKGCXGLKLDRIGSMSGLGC
# [22] = molecular target: T28, Analog CK: GQPREPQVYTGANQQ-CNP22, K4R (IgG1 fragment)
# T28 chain: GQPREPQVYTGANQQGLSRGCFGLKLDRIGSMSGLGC
# [23] = molecular target: T29, Analog CL: GVPQVSTSTGANQQ-CNP22, K4R (HSA fragment)
# T29 chain: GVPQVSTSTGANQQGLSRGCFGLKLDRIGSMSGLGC
# [24] = molecular target: T30, Analog BB: Heptanoic acid (N-term.)-CNP22, G1E
# T30 chain: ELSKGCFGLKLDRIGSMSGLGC
# [25] = molecular target: T31, Analog N: D-CNP22 (all D-amino acids)
# T31 chain: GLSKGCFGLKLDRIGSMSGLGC
# PEO24-CNP22 = molecular target: T32, PEO24-CNP22
# T32 chain: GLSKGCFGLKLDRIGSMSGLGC
# [26] = molecular target: T33, Analog X: CNP22, K4G, 3-methyl-F7
# T33 chain: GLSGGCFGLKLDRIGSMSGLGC
# Analog AH: CNP22, K4R = molecular target: T34, Analog AH: CNP22, K4R
# T34 chain: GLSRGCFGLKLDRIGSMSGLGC
# PEO12-GANPR-CNP22(K4R) = molecular target: T35, PEO12-GANPR-CNP22(K4R)
# T35 chain: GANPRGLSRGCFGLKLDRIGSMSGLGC
# PEG2K-CNP17 = molecular target: T36, PEG2K-CNP17
# T36 chain: CFGLKLDRIGSMSGLGC
# [27] = molecular target: T37, Analog B: CNP22, N-methyl-F7 (methylated amide)
# T37 chain: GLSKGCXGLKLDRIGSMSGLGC
# [28] = molecular target: T38, Analog AW: Heptanoic acid (N-term.)-CNP22, G1E, K4E
# T38 chain: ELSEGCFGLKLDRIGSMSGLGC
# PEG20K-CNP22 = molecular target: T39, PEG20K-CNP22
# T39 chain: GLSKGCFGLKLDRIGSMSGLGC
# PEO12-CNP22 = molecular target: T40, PEO12-CNP22
# T40 chain: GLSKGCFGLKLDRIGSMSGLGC
# PEO12-R-CNP22(K4R) = molecular target: T41, PEO12-R-CNP22(K4R)
# T41 chain: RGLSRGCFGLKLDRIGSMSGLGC
# PEG1K-CNP22 = molecular target: T42, PEG1K-CNP22
# T42 chain: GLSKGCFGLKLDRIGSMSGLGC
# PEG1K-GANRR-CNP22(K4R) = molecular target: T43, PEG1K-GANRR-CNP22(K4R)
# T43 chain: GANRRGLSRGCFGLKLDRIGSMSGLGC
# (PEO12)-Biotin-CNP22 = molecular target: T44, (PEO12)-Biotin-CNP22
# T44 chain: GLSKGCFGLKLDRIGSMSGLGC
# [29] = molecular target: T45, wild-type C-type natriuretic peptide 22 (CNP22)
# T45 chain: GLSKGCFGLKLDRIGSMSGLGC
# Analog BM: CNP53 = molecular target: T46, Analog BM: CNP53
# T46 chain: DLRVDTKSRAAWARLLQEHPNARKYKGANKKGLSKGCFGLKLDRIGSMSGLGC
# PEO12-GANRR-CNP22(K4R) = molecular target: T47, PEO12-GANRR-CNP22(K4R)
# T47 chain: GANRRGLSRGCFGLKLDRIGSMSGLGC
protein,measurement,setting,value
B1,NEP cleavage t1/2,[1],> 2.67 h
same,NEP cleavage t1/2,PEG2K-CNP22,> 2.67 h
same,NEP cleavage t1/2,"Analog P: CNP22, K4G",1.13 h
same,NEP cleavage t1/2,[2],> 2.67 h
same,NEP cleavage t1/2,[3],2 h
same,NEP cleavage t1/2,[4],2.17 h
same,NEP cleavage t1/2,[5],> 2.67 h
same,NEP cleavage t1/2,PEO24-GANRR-CNP22(K4R),> 2.67 h
same,NEP cleavage t1/2,PEG5K-CNP22,> 2.67 h
same,NEP cleavage t1/2,[6],1.33 h
same,NEP cleavage t1/2,[7],2.5 h
same,NEP cleavage t1/2,[8],≥ 2.67 h
same,NEP cleavage t1/2,[9],1.58 h
same,NEP cleavage t1/2,[10],> 2.67 h
same,NEP cleavage t1/2,[11],0.917 h
same,NEP cleavage t1/2,[12],0.5 h
same,NEP cleavage t1/2,[13],> 2.67 h
same,NEP cleavage t1/2,"Analog AZ: R-CNP22, K4R",≥ 2.67 h
same,NEP cleavage t1/2,[14],1.33 h
same,NEP cleavage t1/2,[15],> 2.67 h
same,NEP cleavage t1/2,[16],1.13 h
same,NEP cleavage t1/2,[17],1 h
same,NEP cleavage t1/2,[18],1.08 h
same,NEP cleavage t1/2,[19],1.33 h
same,NEP cleavage t1/2,[20],1.33 h
same,NEP cleavage t1/2,"Analog BA: ER-CNP22, K4R",1.5 h
same,NEP cleavage t1/2,[21],2.25 h
same,NEP cleavage t1/2,[22],≥ 2.67 h
same,NEP cleavage t1/2,[23],> 2.67 h
same,NEP cleavage t1/2,[24],0.75 h and 1.08 h
same,NEP cleavage t1/2,[25],> 2.67 h
same,NEP cleavage t1/2,PEO24-CNP22,> 2.67 h
same,NEP cleavage t1/2,[26],1.13 h
same,NEP cleavage t1/2,"Analog AH: CNP22, K4R",1.33 h
same,NEP cleavage t1/2,PEO12-GANPR-CNP22(K4R),1.33 h
same,NEP cleavage t1/2,PEG2K-CNP17,> 2.67 h
same,NEP cleavage t1/2,[27],1.33 h
same,NEP cleavage t1/2,[28],< 0.333 h
same,NEP cleavage t1/2,PEG20K-CNP22,> 2.67 h
same,NEP cleavage t1/2,PEO12-CNP22,≥ 2.67 h
same,NEP cleavage t1/2,PEO12-R-CNP22(K4R),≥ 2.67 h
same,NEP cleavage t1/2,PEG1K-CNP22,> 2.67 h
same,NEP cleavage t1/2,PEG1K-GANRR-CNP22(K4R),> 2.67 h
same,NEP cleavage t1/2,(PEO12)-Biotin-CNP22,2.33 h
same,NEP cleavage t1/2,[29],1.33 h
same,NEP cleavage t1/2,Analog BM: CNP53,> 2.67 h
same,NEP cleavage t1/2,PEO12-GANRR-CNP22(K4R),> 2.67 h
